Measured values from the supplement of paper PMC9732359.
± gives the uncertainty stated by the source.

Assay: protein stability index of a GFP-peptide fusion (yeast GPS) (PSI 1-4); higher = more stable; sorted into four equal gates, so the index is relative within each strain
How it was run: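 Tiled 17-residue peptides from yeast proteins were fused downstream of GFP on a plasmid that also expresses Cherry, and the pooled library was carried in yeast. Mid-log cultures grown in leucine-free medium were sorted into four equal gates by GFP/Cherry fluorescence ratio. Plasmids from each gate were PCR-amplified and Illumina-sequenced, and reads were assigned to strains by barcodes. Each peptide's protein stability index is the sum, over gates, of the gate's read frequency multiplied by its gate number.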

| Sequence | protein stability index (doa10∆) | protein stability index (pdr5∆) | protein stability index (san1∆) | protein stability index (ubr1∆) |
| --- | --- | --- | --- | --- |
| FNTFWDEKGNEIKVGKQ [ARP9] | 3.24 ± 0.099 | 2.53 ± 0.089 | 2.88 ± 0.089 | 2.52 ± 0.059 |
| KREESESAAVYNGRGAR [SNF2] | 3.09 ± 0.17 | 3.02 ± 0.091 | 3.35 ± 0.057 | 3.49 ± 0.085 |
| AHKLKKSLDSIPMSKTI [FAS2] | 3 ± 0.083 | 3.01 ± 0.078 | 3.01 ± 0.058 | 2.8 ± 0.083 |
| MALKKNTHNKSTKRVTK [POP7] | 2.71 ± 0.1 | 2.73 ± 0.11 | 2.82 ± 0.053 | 2.84 ± 0.06 |
| LAIIGDENPDLLGYTGI [PRE8] | 1.71 ± 0.06 | 1.93 ± 0.081 | 2.73 ± 0.098 | 1.93 ± 0.054 |
| LPKFLTVQYVRFFWKRS [UBP6] | 1.62 ± 0.04 | 1.35 ± 0.035 | 1.24 ± 0.085 | 1.19 ± 0.032 |
| QGPRSYFLDVKCPGCLN [RPS27A] | 2.93 ± 0.097 | 3.38 ± 0.1 | 3.13 ± 0.08 | 2.6 ± 0.11 |
| LVDLVSHFSPDIKAAVD [ITC1] | 1.95 ± 0.063 | 1.99 ± 0.071 | 2.09 ± 0.076 | 2.54 ± 0.05 |
| IMNMIENVEKKEAALKT [SMC2] | 1.76 ± 0.082 | 1.83 ± 0.079 | 1.67 ± 0.092 | 1.69 ± 0.05 |
| YPDLKAFHNNLKFLYLL [MED1] | 2.06 ± 0.059 | 2.04 ± 0.05 | 1.83 ± 0.074 | 1.93 ± 0.037 |
| NWRGREHWKVRNFKKAN [BRN1] | 3.43 ± 0.12 | 3.36 ± 0.12 | 3.52 ± 0.075 | 3.49 ± 0.1 |
| VVVKNWGAETDELSMIM [RPS12] | 3.35 ± 0.14 | 3.4 ± 0.14 | 3.23 ± 0.087 | 3.15 ± 0.14 |
| ILDLKEFDRRILKKSLM [RTT102] | – | 3.47 ± 0.23 | 3.19 ± 0.099 | 3.22 ± 0.28 |
| CLNTQRGDSTETSSFGS [RRI1] | 3.61 ± 0.14 | 3.25 ± 0.17 | 3.37 ± 0.084 | 3.56 ± 0.17 |
| KVVTKKYCEIMGDNSQL [SNF2] | 3.19 ± 0.17 | 3.25 ± 0.14 | 2.88 ± 0.15 | 2.98 ± 0.1 |
| TLKIHLKKFLQEKMDPN [IRR1] | 2.86 ± 0.1 | 3.01 ± 0.08 | 3.08 ± 0.084 | 2.82 ± 0.099 |
| NPHDTLNRIKKYLLTQR [PRP8] | 2.22 ± 0.095 | 2.14 ± 0.08 | 2.25 ± 0.11 | 2.27 ± 0.15 |
| QTANEKHITVRLTAKRL [SRP14] | 2.75 ± 0.1 | 2.91 ± 0.09 | 2.94 ± 0.082 | 2.92 ± 0.065 |
| SIVLLLLSQFGIKVLPE [YML103C/NUP188] | 1.8 ± 0.096 | 1.28 ± 0.085 | 1.18 ± 0.13 | 1.42 ± 0.033 |
| PRVQGFYVPQARNVTFD [GRR1] | 2.99 ± 0.064 | 2.68 ± 0.056 | 2.91 ± 0.038 | 3.02 ± 0.045 |
| STVAKNVSFVLPDEKSD [YCG1] | 3.2 ± 0.058 | 3.16 ± 0.037 | 3.09 ± 0.041 | 3.01 ± 0.038 |
| HMISQEGIKETQAKRIF [SWI1] | 3.1 ± 0.17 | 3.53 ± 0.21 | 3.19 ± 0.11 | 3.22 ± 0.13 |
| MVHLYSIVEECDARFDE [RPC17] | 3.04 ± 0.12 | 2.94 ± 0.078 | 3.01 ± 0.099 | 2.74 ± 0.18 |
| DAWVSAAHYNRERIKRG [PRP8] | 2.76 ± 0.13 | 1.81 ± 0.099 | 2.6 ± 0.062 | 1.96 ± 0.15 |
| CDLSSKFNKSKAKFTSL [YCS4] | 2.72 ± 0.055 | 2.79 ± 0.07 | 2.98 ± 0.05 | 2.64 ± 0.037 |
| ILTKEVQGSTLAQLTSK [RPS1A] | 3.27 ± 0.084 | 3 ± 0.08 | 3.2 ± 0.072 | 2.93 ± 0.15 |
| LVGRLRKCETQKQWDDI [YCS4] | 2.21 ± 0.069 | 1.74 ± 0.057 | 1.53 ± 0.15 | 1.48 ± 0.072 |

| Sequence | protein stability index (doa10∆) | protein stability index (pdr5∆) | protein stability index (san1∆) | protein stability index (ubr1∆) |
| --- | --- | --- | --- | --- |
| EDITEPKPDKPSGRTRG [ESC2] | 3.07 ± 0.15 | 2.96 ± 0.14 | 3.07 ± 0.11 | 3.26 ± 0.1 |
| SGTFYRYNAKAIGSGSE [PUP2] | 3.15 ± 0.088 | 3.14 ± 0.09 | 3.37 ± 0.06 | 2.98 ± 0.073 |
| NRAARDRRAQRVAEKRD [RPL19A] | 2.94 ± 0.12 | 2.69 ± 0.082 | 2.85 ± 0.089 | 3.19 ± 0.06 |
| GRQTVLIKDNSAMVTTA [SRB2] | – | 1.8 ± 0.28 | – | – |
| LMRSCFYLMVSSLSFGP [YJL039C/NUP192] | 1.64 ± 0.04 | 1.48 ± 0.04 | 1.76 ± 0.075 | 1.19 ± 0.033 |
| SASKHEYSDNFPVSLSQ [SIR4] | 3 ± 0.045 | 2.71 ± 0.039 | 3.06 ± 0.04 | 3.041 ± 0.029 |
| VKSLLSEEKIRDYSKEI [SIR4] | 3.14 ± 0.3 | 2.48 ± 0.14 | 2.46 ± 0.14 | – |
| SSKLYQMQQQQQAQAQA [GAL11] | 1.89 ± 0.071 | 2.09 ± 0.051 | 1.9 ± 0.082 | 1.82 ± 0.057 |
| KHLWDQKSLAALKKSRS [RPC17] | 2.75 ± 0.12 | 2.97 ± 0.072 | 2.92 ± 0.083 | 2.81 ± 0.07 |
| YMEQGNNKIITLVKGPK [SKI6] | 2.76 ± 0.054 | 3.11 ± 0.085 | 2.8 ± 0.054 | 2.96 ± 0.034 |
| LFKALKVILNERGGKFH [RGR1] | 2.44 ± 0.075 | 2.64 ± 0.068 | 2.17 ± 0.094 | 2.64 ± 0.059 |
| FNDSQAIVCYILFELYK [SRP72] | 1.95 ± 0.056 | 2.31 ± 0.047 | 2.01 ± 0.061 | 2.36 ± 0.053 |
| RQTGPAKINEVYNNSKD [NSL1] | 3.06 ± 0.087 | 3.06 ± 0.083 | 2.93 ± 0.073 | 2.9 ± 0.062 |
| KVSPSMCGVIVKQYNKK [SIN4] | 3 ± 0.19 | 2.98 ± 0.15 | 2.58 ± 0.15 | 3.15 ± 0.14 |
| DGNNEIFTCQIMNLITN [RPN4] | 2.09 ± 0.083 | 2.62 ± 0.18 | 2.35 ± 0.2 | 2.35 ± 0.25 |
| VLQNVFKLVSTPSSNSN [MED1] | 1.44 ± 0.04 | 1.67 ± 0.041 | 1.5 ± 0.072 | 1.36 ± 0.038 |
| IINSTALMKEKDIRSTL [RPC82] | 3.12 ± 0.19 | 3 ± 0.099 | 2.97 ± 0.093 | 3.25 ± 0.09 |
| DGFKIYDNEKTAELIKE [PUP2] | 3.29 ± 0.1 | 3.32 ± 0.15 | 3.15 ± 0.061 | 3.18 ± 0.13 |
| KIWSVKDGSNPRTLIGH [RPN14] | 3.12 ± 0.11 | 3.01 ± 0.12 | 2.95 ± 0.14 | 2.96 ± 0.12 |
| SRYILFEIIFPPTDTNV [POP5] | 1.54 ± 0.069 | 1.41 ± 0.052 | 1.53 ± 0.086 | 1.77 ± 0.047 |
| LVSLLDENDSKKNNAAS [YAR002W/NUP60] | 3 ± 0.07 | 2.92 ± 0.071 | 2.86 ± 0.092 | 3.08 ± 0.056 |
| NYTKDNEYYPMCEQALS [YCS4] | 2.25 ± 0.066 | 2.61 ± 0.087 | 2.6 ± 0.071 | 2.47 ± 0.052 |
| YPMMHQVRNQVFMLDTK [RGR1] | 2.25 ± 0.08 | 2.35 ± 0.08 | 2.3 ± 0.081 | 2.75 ± 0.068 |
| GSPKSATSKTSEMLAKY [CDC53] | 2.67 ± 0.075 | 2.48 ± 0.072 | 1.83 ± 0.1 | 3 ± 0.045 |
| DDHSQVINPQQLLKGLS [DSN1] | 3.17 ± 0.1 | 2.98 ± 0.084 | 3.03 ± 0.057 | 3.01 ± 0.068 |
| RIARALKQEGAANKTVV [RPL18A] | 3.44 ± 0.22 | 3.39 ± 0.095 | 2.95 ± 0.15 | 3.33 ± 0.052 |
| SVLYPDELEDDTLNETN [RRP43] | 3 ± 0.082 | 3.08 ± 0.071 | 3.19 ± 0.08 | 3.11 ± 0.062 |
